Results: PMC12416549 (2024)

T1: TNFR1 (Homo sapiens, UniProt P19438)
T1 chain: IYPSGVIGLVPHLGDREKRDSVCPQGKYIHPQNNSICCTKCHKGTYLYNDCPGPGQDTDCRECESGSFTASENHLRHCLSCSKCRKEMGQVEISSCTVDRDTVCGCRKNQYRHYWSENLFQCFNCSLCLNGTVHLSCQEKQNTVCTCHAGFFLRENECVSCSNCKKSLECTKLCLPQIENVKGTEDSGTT


Biological target: T1, TNFR1
Test: yeast display SC50

| Binder | apparent Kd (screen) [nM] |
| --- | --- |
| Q4W (designed binder) MTLWELLREEALRRAEAEAFRYALELLAEKFPEQKEYLLDLAEEIESQIRSLSGVDVEDVRKFLDKEWAWVKELLAEHPAELAEVEAARAARLAELRAEVEAKVAA | 0.539 |
| L7I (designed binder) MTLQELIREEALRRAEAEAFRYALELLAEKFPEQKEYLLDLAEEIESQIRSLSGVDVEDVRKFLDKEWAWVKELLAEHPAELAEVEAARAARLAELRAEVEAKVAA | 2.25 |
| S53F (designed binder) MTLQELLREEALRRAEAEAFRYALELLAEKFPEQKEYLLDLAEEIESQIRSLFGVDVEDVRKFLDKEWAWVKELLAEHPAELAEVEAARAARLAELRAEVEAKVAA | 0.956 |
| K30N (designed binder) MTLQELLREEALRRAEAEAFRYALELLAENFPEQKEYLLDLAEEIESQIRSLSGVDVEDVRKFLDKEWAWVKELLAEHPAELAEVEAARAARLAELRAEVEAKVAA | 0.539 |
| E99A (designed binder) MTLQELLREEALRRAEAEAFRYALELLAEKFPEQKEYLLDLAEEIESQIRSLSGVDVEDVRKFLDKEWAWVKELLAEHPAELAEVEAARAARLAELRAAVEAKVAA | 1.27 |
| L26C (designed binder) MTLQELLREEALRRAEAEAFRYALECLAEKFPEQKEYLLDLAEEIESQIRSLSGVDVEDVRKFLDKEWAWVKELLAEHPAELAEVEAARAARLAELRAEVEAKVAA | 0.49 |
| L82P (designed binder) MTLQELLREEALRRAEAEAFRYALELLAEKFPEQKEYLLDLAEEIESQIRSLSGVDVEDVRKFLDKEWAWVKELLAEHPAEPAEVEAARAARLAELRAEVEAKVAA | 5.84 |
| S53A (designed binder) MTLQELLREEALRRAEAEAFRYALELLAEKFPEQKEYLLDLAEEIESQIRSLAGVDVEDVRKFLDKEWAWVKELLAEHPAELAEVEAARAARLAELRAEVEAKVAA | 0.956 |
| L41A (designed binder) MTLQELLREEALRRAEAEAFRYALELLAEKFPEQKEYLLDAAEEIESQIRSLSGVDVEDVRKFLDKEWAWVKELLAEHPAELAEVEAARAARLAELRAEVEAKVAA | 2.48 |
| V100Y (designed binder) MTLQELLREEALRRAEAEAFRYALELLAEKFPEQKEYLLDLAEEIESQIRSLSGVDVEDVRKFLDKEWAWVKELLAEHPAELAEVEAARAARLAELRAEYEAKVAA | 0.49 |
| S51W (designed binder) MTLQELLREEALRRAEAEAFRYALELLAEKFPEQKEYLLDLAEEIESQIRWLSGVDVEDVRKFLDKEWAWVKELLAEHPAELAEVEAARAARLAELRAEVEAKVAA | 0.446 |
| E73F (designed binder) MTLQELLREEALRRAEAEAFRYALELLAEKFPEQKEYLLDLAEEIESQIRSLSGVDVEDVRKFLDKEWAWVKFLLAEHPAELAEVEAARAARLAELRAEVEAKVAA | 0.653 |
| E46R (designed binder) MTLQELLREEALRRAEAEAFRYALELLAEKFPEQKEYLLDLAEEIRSQIRSLSGVDVEDVRKFLDKEWAWVKELLAEHPAELAEVEAARAARLAELRAEVEAKVAA | 0.718 |
| F20D (designed binder) MTLQELLREEALRRAEAEADRYALELLAEKFPEQKEYLLDLAEEIESQIRSLSGVDVEDVRKFLDKEWAWVKELLAEHPAELAEVEAARAARLAELRAEVEAKVAA | 11.4 |
| A90H (designed binder) MTLQELLREEALRRAEAEAFRYALELLAEKFPEQKEYLLDLAEEIESQIRSLSGVDVEDVRKFLDKEWAWVKELLAEHPAELAEVEAARHARLAELRAEVEAKVAA | 0.869 |
| L39W (designed binder) MTLQELLREEALRRAEAEAFRYALELLAEKFPEQKEYLWDLAEEIESQIRSLSGVDVEDVRKFLDKEWAWVKELLAEHPAELAEVEAARAARLAELRAEVEAKVAA | 0.869 |
| L27F (designed binder) MTLQELLREEALRRAEAEAFRYALELFAEKFPEQKEYLLDLAEEIESQIRSLSGVDVEDVRKFLDKEWAWVKELLAEHPAELAEVEAARAARLAELRAEVEAKVAA | 0.446 |
| A91Y (designed binder) MTLQELLREEALRRAEAEAFRYALELLAEKFPEQKEYLLDLAEEIESQIRSLSGVDVEDVRKFLDKEWAWVKELLAEHPAELAEVEAARAYRLAELRAEVEAKVAA | 0.653 |

| Binder | apparent Kd (screen) [nM] |
| --- | --- |
| A88I (designed binder) MTLQELLREEALRRAEAEAFRYALELLAEKFPEQKEYLLDLAEEIESQIRSLSGVDVEDVRKFLDKEWAWVKELLAEHPAELAEVEAIRAARLAELRAEVEAKVAA | 0.653 |
| Q48V (designed binder) MTLQELLREEALRRAEAEAFRYALELLAEKFPEQKEYLLDLAEEIESVIRSLSGVDVEDVRKFLDKEWAWVKELLAEHPAELAEVEAARAARLAELRAEVEAKVAA | 1.27 |
| E25C (designed binder) MTLQELLREEALRRAEAEAFRYALCLLAEKFPEQKEYLLDLAEEIESQIRSLSGVDVEDVRKFLDKEWAWVKELLAEHPAELAEVEAARAARLAELRAEVEAKVAA | 0.49 |
| E84C (designed binder) MTLQELLREEALRRAEAEAFRYALELLAEKFPEQKEYLLDLAEEIESQIRSLSGVDVEDVRKFLDKEWAWVKELLAEHPAELACVEAARAARLAELRAEVEAKVAA | 0.539 |
| H78T (designed binder) MTLQELLREEALRRAEAEAFRYALELLAEKFPEQKEYLLDLAEEIESQIRSLSGVDVEDVRKFLDKEWAWVKELLAETPAELAEVEAARAARLAELRAEVEAKVAA | 0.869 |
| R21T (designed binder) MTLQELLREEALRRAEAEAFTYALELLAEKFPEQKEYLLDLAEEIESQIRSLSGVDVEDVRKFLDKEWAWVKELLAEHPAELAEVEAARAARLAELRAEVEAKVAA | 0.956 |
| E33T (designed binder) MTLQELLREEALRRAEAEAFRYALELLAEKFPTQKEYLLDLAEEIESQIRSLSGVDVEDVRKFLDKEWAWVKELLAEHPAELAEVEAARAARLAELRAEVEAKVAA | 0.405 |
| E10F (designed binder) MTLQELLREFALRRAEAEAFRYALELLAEKFPEQKEYLLDLAEEIESQIRSLSGVDVEDVRKFLDKEWAWVKELLAEHPAELAEVEAARAARLAELRAEVEAKVAA | 1.27 |
| E16Q (designed binder) MTLQELLREEALRRAQAEAFRYALELLAEKFPEQKEYLLDLAEEIESQIRSLSGVDVEDVRKFLDKEWAWVKELLAEHPAELAEVEAARAARLAELRAEVEAKVAA | 0.653 |
| E81M (designed binder) MTLQELLREEALRRAEAEAFRYALELLAEKFPEQKEYLLDLAEEIESQIRSLSGVDVEDVRKFLDKEWAWVKELLAEHPAMLAEVEAARAARLAELRAEVEAKVAA | 0.593 |
| Y22F (designed binder) MTLQELLREEALRRAEAEAFRFALELLAEKFPEQKEYLLDLAEEIESQIRSLSGVDVEDVRKFLDKEWAWVKELLAEHPAELAEVEAARAARLAELRAEVEAKVAA | 0.49 |
| M1G (designed binder) GTLQELLREEALRRAEAEAFRYALELLAEKFPEQKEYLLDLAEEIESQIRSLSGVDVEDVRKFLDKEWAWVKELLAEHPAELAEVEAARAARLAELRAEVEAKVAA | 0.49 |
| Q48C (designed binder) MTLQELLREEALRRAEAEAFRYALELLAEKFPEQKEYLLDLAEEIESCIRSLSGVDVEDVRKFLDKEWAWVKELLAEHPAELAEVEAARAARLAELRAEVEAKVAA | 0.956 |
| K62I (designed binder) MTLQELLREEALRRAEAEAFRYALELLAEKFPEQKEYLLDLAEEIESQIRSLSGVDVEDVRIFLDKEWAWVKELLAEHPAELAEVEAARAARLAELRAEVEAKVAA | 0.49 |
| I49N (designed binder) MTLQELLREEALRRAEAEAFRYALELLAEKFPEQKEYLLDLAEEIESQNRSLSGVDVEDVRKFLDKEWAWVKELLAEHPAELAEVEAARAARLAELRAEVEAKVAA | 2.25 |
| A76V (designed binder) MTLQELLREEALRRAEAEAFRYALELLAEKFPEQKEYLLDLAEEIESQIRSLSGVDVEDVRKFLDKEWAWVKELLVEHPAELAEVEAARAARLAELRAEVEAKVAA | 0.539 |
| E77I (designed binder) MTLQELLREEALRRAEAEAFRYALELLAEKFPEQKEYLLDLAEEIESQIRSLSGVDVEDVRKFLDKEWAWVKELLAIHPAELAEVEAARAARLAELRAEVEAKVAA | 1.27 |
